The record followed here is article PMC7076015, “An epilepsy-associated mutation in the nuclear import receptor KPNA7 reduces nuclear localization signal binding” (Scientific Reports, 2020).

What all share (conditions): both partners purified
Assay [1] deals with T1, MBP-KPNA7 (wild type) (human, UniProt A9QM74 1-516).
T1 construct: also called WT KPNA7; MBP-KPNA7 WT; source: E. coli BL21, purified (amylose resin, eluted with maltose, dialyzed)
Put plainly: pull-down; bead binding assay with a range of GST-GFP-hnRNP R-bNLS concentrations (10 nM to 2.7 μM) on KPNA7 proteins; binding curve, apparent KD.

The target of assay [2] is T2, MBP-KPNA7(E344Q) (human, UniProt A9QM74 1-516, E344Q).
T2 construct: Substitution found in epilepsy patients (occurs in nature); also called KPNA7 mutant E344Q; E344Q KPNA7; source: E. coli BL21, purified (amylose resin, eluted with maltose, dialyzed)
T2 sequence (A9QM74 whole entry E344Q): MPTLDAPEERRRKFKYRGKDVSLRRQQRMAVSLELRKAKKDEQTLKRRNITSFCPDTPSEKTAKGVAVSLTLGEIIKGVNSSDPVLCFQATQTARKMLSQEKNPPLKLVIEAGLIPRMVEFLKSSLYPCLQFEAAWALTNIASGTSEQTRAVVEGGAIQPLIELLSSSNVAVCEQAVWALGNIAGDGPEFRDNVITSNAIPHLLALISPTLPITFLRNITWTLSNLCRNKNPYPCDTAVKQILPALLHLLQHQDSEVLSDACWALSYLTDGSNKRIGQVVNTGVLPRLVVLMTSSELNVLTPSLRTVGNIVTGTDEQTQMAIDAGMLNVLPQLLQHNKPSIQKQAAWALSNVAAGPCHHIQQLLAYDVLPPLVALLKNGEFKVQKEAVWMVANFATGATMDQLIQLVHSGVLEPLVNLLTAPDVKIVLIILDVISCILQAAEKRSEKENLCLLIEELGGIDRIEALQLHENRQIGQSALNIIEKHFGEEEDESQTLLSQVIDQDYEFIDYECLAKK
Described as above.

Assay [3] has as its target T3, MBP-KPNA7(P339A) (human, UniProt A9QM74 1-516, P339A).
T3 construct: Substitution found in epilepsy patients (occurs in nature); also called KPNA7 mutant P339A; P339A KPNA7; source: E. coli BL21, purified (amylose resin, eluted with maltose, dialyzed)
Briefly: pull-down; MBP fusion proteins on amylose resin (1 μg/μl), GST-GFP-NLS constructs in solution (250 nM or indicated concentrations) with Imp-β (250 nM); 2 hrs at 4 °C, 20 mM Tris pH 8, 200 mM NaCl, 1 mM EDTA, 1 mM DTT, 0.05% Triton X-100; western blot. On the technique in general: Immunoblotting shows a protein as a band on a membrane.

In assay [4] the target is T2, MBP-KPNA7(E344Q). The assay is described as above.

T1 sequence (A9QM74 whole entry): as the sequence (A9QM74 whole entry E344Q) above, with Q344E counted along it
T3 sequence (A9QM74 whole entry P339A): as the sequence (A9QM74 whole entry E344Q) above, with P339A, Q344E counted along it

B1: GST-GFP-hnRNP R bipartite NLS (domain or fragment, UniProt O43390 565-589, looked up)
chain: RGGNVGGKRKADGYNQPDSKRRQTN
notes: hnRNP R, bipartite NLS (bNLS, a.a. 565-589), cloned into pGEX-4T1-GFP; The limits are those that the text gives for the NLS; also called hnRNP R bNLS; hnRNP R-bNLS; source: E. coli BL21, purified (glutathione resin)
On to B1, for which the Kd in assay [1] was about 0.123 µM; in assay [2], about 0.223 µM. In assay [3], the binding result is given as “binds”. The “fold less binding than WT KPNA7” value in assay [4] is about 10 fold.
